Molecular target: CCL8 (human chemokine panel) (human) (UniProt P80075)
Sequence (P80075 24-99): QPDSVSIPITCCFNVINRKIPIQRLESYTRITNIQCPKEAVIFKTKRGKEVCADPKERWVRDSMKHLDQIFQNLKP

“P672(1_44)-EVA1(29_94) hybrid evasin (from UniProt L7MC74;P0C8E7)” was tested, and the IC50 of neutralization of CCL8-induced THP-1 monocyte cell migration (EC80 dose of CCL8) was 48 nM.

From PMC5912465
